One block for each substance: values may come before it.
How the values were obtained:
Assay in all cases: cell-based or functional assay
[1] = target: GFP-HIF-1α (Aequeora victoria; human) [GFP: P42212]
GAL4/HIF 531-584 (human) = target: GAL4/HIF 531-584 (human)
GAL4/HIF 1-826 (human) = target: GAL4/HIF 1-826 (human)
GAL4/HIF 776-826 (human) = target: GAL4/HIF 776-826 (human)
human HIF-1α (human) = human HIF-1α (human) (UniProt Q16665)
GAL4/HIF 1-813 (human) = target: GAL4/HIF 1-813 (human)
GAL4/HIF 71-826 (human) = target: GAL4/HIF 71-826 (human)
GAL4/HIF 526-826 (human) = target: GAL4/HIF 526-826 (human)
GAL4/Arnt 128-774 = GAL4/Arnt 128-774 (UniProt P04386)
GAL4/Arnt 128-603 = GAL4/Arnt 128-603 (UniProt P04386)

Chain of human HIF-1α (human) (Q16665 whole entry, the tested form may be a part): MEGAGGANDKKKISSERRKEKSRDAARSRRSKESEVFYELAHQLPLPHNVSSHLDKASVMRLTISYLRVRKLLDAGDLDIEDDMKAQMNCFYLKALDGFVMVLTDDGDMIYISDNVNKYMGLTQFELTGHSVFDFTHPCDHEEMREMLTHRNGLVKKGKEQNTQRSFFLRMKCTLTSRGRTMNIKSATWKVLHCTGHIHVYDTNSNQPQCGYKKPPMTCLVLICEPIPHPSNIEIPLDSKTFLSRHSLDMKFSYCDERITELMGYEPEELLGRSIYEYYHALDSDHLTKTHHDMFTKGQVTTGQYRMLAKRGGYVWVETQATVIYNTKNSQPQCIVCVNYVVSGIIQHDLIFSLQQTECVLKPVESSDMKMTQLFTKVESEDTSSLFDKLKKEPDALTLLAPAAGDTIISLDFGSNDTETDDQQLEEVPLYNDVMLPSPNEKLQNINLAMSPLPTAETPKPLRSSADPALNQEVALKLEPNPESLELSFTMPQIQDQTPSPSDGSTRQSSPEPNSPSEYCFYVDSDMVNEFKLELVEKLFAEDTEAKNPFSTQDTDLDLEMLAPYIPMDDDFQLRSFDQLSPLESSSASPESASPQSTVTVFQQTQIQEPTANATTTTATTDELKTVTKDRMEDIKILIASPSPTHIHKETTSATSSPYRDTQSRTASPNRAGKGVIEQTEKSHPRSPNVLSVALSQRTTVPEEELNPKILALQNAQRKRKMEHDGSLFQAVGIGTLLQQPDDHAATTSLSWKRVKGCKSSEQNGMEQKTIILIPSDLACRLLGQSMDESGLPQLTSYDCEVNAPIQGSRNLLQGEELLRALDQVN

HRE-luciferase reporter gene activity in COS7 cells, hypoxia [1]: 3 fold
HRE-luciferase reporter gene activity in COS7 cells, hypoxia over normoxia [1]: 15 fold
GAL4-responsive reporter gene activity in COS7 cells, hypoxia (GAL4/HIF 531-584 (human)): 11 fold
GAL4-responsive luciferase reporter gene activity in COS7 cells, hypoxia (GAL4/HIF 1-826 (human)): 19 fold
GAL4-responsive luciferase reporter gene activity in COS7 cells, normoxia (GAL4/HIF 1-826 (human)): 2 to 3 fold
GAL4-responsive reporter gene activity in COS7 cells, hypoxia (GAL4/HIF 1-826 (human)): 8 to 10 fold
GAL4-responsive reporter gene activity in COS7 cells (GAL4/HIF 776-826 (human)): 29 fold
pT81/HRE-luc reporter gene activity in COS7 cells coexpressing HIF-1α and Arnt, hypoxia (human HIF-1α (human)): 2 to 3 fold
GAL4-responsive reporter gene activity in COS7 cells, hypoxia (GAL4/HIF 1-813 (human)): 14 fold
GAL4-responsive luciferase activity in COS7 cells, hypoxia, against hypoxia without exogenous coactivators (GAL4/HIF 71-826 (human)): 30 fold
GAL4-responsive reporter gene activity in COS7 cells (GAL4/HIF 526-826 (human)): 7 to 9 fold
Substance: CBP (full-length mouse CBP) (from UniProt P45481 1-2441)

GAL4-responsive reporter gene activity in COS7 cells, hypoxia, Ref-1 coexpressed with CBP and SRC-1 (GAL4/HIF 531-584 (human)): 12 fold
GAL4-responsive reporter gene activity in COS7 cells, hypoxia, Ref-1 coexpressed with CBP and SRC-1 (GAL4/HIF 776-826 (human)): 53 fold
Substance: Ref-1 (from UniProt P27695 1-318) (enzyme)

pT81/HRE-luc reporter gene activity in COS7 cells coexpressing HIF-1α and Arnt, hypoxia over normoxia (human HIF-1α (human)): 12 fold
Substance: TIF2 (from UniProt Q15596 1-1464)

GAL4-responsive reporter gene activity in COS7 cells, normoxia (GAL4/Arnt 128-774): 4 fold
GAL4-responsive reporter gene activity in COS7 cells, normoxia (GAL4/Arnt 128-603): 5 fold
Substance: human HIF-1α (from UniProt Q16665 1-826)

Source: patent publication US6436654
